Test results as given in patent US9789196B2, “Site-specific insulin-polymer conjugates” (AntriaBio, Inc., priority 2003, dated 2017).

Key:
[1] = Characterization of PEG-insulin PLGA microspheres (coreload, encapsulation efficiency by RP-HPLC); assay type: physicochemical; conditions: PLGA 45:55 L:G, 0.15 dL/g, acid end group microspheres, nominal core load 25 wt %
Procedure: PEG-insulin F5000 (50 mg) was dissolved in 1 ml methylene chloride. The solution was added to a volume of 1 ml methylene chloride containing 150 mg PLGA 45:55 (lac:gly), 0.15 dl/g IV with acid end groups. The methylene chloride solution was added to 5 ml water containing 1% poly(vinyl alcohol) in a 15 ml centrifuge tube and vortex-mixed to form an emulsion. The emulsion was added to 100 ml of water containing 0.3% poly(vinyl alcohol) and stirred for 3 hrs to evaporate the methylene chloride. The hardened microspheres were collected by vacuum filtration on Whatman #1 filter paper and dried.
The PEG-insulin microspheres' surface morphology and particle size distribution were examined by scanning electron microscope and laser-light scattering particle size analysis, respectively. Analytical reverse phase HPLC was used to quantify the amount of PEG-insulin conjugate encapsulated within the polymer microspheres. Prior to HPLC analysis, a measured quantity of microspheres was dissolved in a volume of acetonitrile, and an equivalent volume of 0.1% TFA in water was added to precipitate the polymer and extract the conjugate into aqueous solution. K2000, K5000, K10000, K20000 and F5000-A were also encapsulated using this method. The results of these tests are collected in Table 1, which lists the PEG-insulin content in % (w/w) of the total microsphere and the encapsulation efficiency, defined as weight of PEG-insulin encapsulated/weight of PEG-insulin added initially. Relatively high drug content up to 28.3% and encapsulation efficiency, up to 100%, were achieved, making the product clinically useful due to reduced total dose required, and commercially attractive due to low losses of starting material. In addition, microspheres were prepared using polymers of varying lactide:glycolide ratios (50:[…]), molecular weights (6.5-24 kDa), intrinsic viscosities (0.09-0.27 dL/g), or terminal ester groups (methyl and lauryl), with a wide range of drug loadings (5-35 wt %).
Microspheres were prepared with PLGA (45:55 L:G, 0.15 dL/g, acid end group) to a nominal core load of 25 wt %.

[2] = In vitro release of PEG-insulin from PLGA microspheres; assay type: physicochemical; conditions: PLGA 45:55 microspheres, nominal core load 25 wt %
Procedure: A sample of 15 mg […] PEG-insulin microspheres (14.1% drug content, PLGA 45:55; 0.15 dl/g IV, acid end groups) was suspended in 1.5 ml phosphate buffered saline (pH 7.4, 0.02% sodium azide and 0.02% Tween20) and incubated at 37° C. The supernatant was withdrawn at intervals and analyzed by RP HPLC for released PEG-insulin. The buffer was replaced with fresh PBS and the incubation continued. The data were analyzed for cumulative release as a function of incubation time (FIG. 4). Less than 1.0% of the PEG-insulin is released in the first day and over 95% is released within 18 days. The low “burst” release, high total release and duration over approximately a two-week period are highly desired features of a sustained release insulin formulation.

[3] = tested on: fasted Sprague-Dawley rats; assay: Pharmacodynamics of PEG-insulin conjugates after intravenous injection to normal rats (blood glucose); assay type: in vivo, rat; conditions: 0.3 IU/kg equivalent; for suppression of glucose levels relative to normal human insulin: tail vein injection, fasted Sprague-Dawley rats, 6 hrs, vs Humulin R
Procedure: The effects of PEGylation on insulin pharmacodynamics were investigated. These studies were conducted to evaluate the in vivo biological activity (ability to lower serum glucose) of conjugate formulations containing PEG-insulins differing in site of substitution (positional isomers) or PEG molecular weight, relative to a commercially available insulin formulation (Humulin R, Lilly). Blood glucose levels were measured for fasted Sprague-Dawley rats after intravenous administration of F5000, K2000, K5000, K10000, or HumulinR®. The equivalent of 0.3 IU/kg (based on protein concentration and corrected for the weight of the PEG as appropriate; assumes 25 IU/mg protein) were dissolved in normal saline and administered by tail vein injection; N=6 per group. Blood was drawn before test article injection and at intervals over a period of 6 hrs post injection. Serum was isolated by standard procedure and glucose levels were measured using an Accucheck Advantage (Boeringer Ingelheim) glucose meter.

rabbits = conditions: calculated on a molar basis; cited from earlier work
liver enzymes = conditions: cited from earlier work

Substance: F5000-A: probably F5000 made with mPEG(5000)-aldehyde, secondary amine bond at PheB1 (Example 5) [Conjugate F5000-A]
- Coreload [1]: 21 wt %
- Encapsulation Efficiency [1]: 85 wt %
- In vitro release, Initial burst [2]: 20%
- In vitro release, Total [2]: 97%

Substance: K2000: linear mPEG-SPA 2000 Da attached to the amino group of LysB29 of insulin [Conjugate K2000]
- suppression of glucose levels relative to normal human insulin [3]: as effective in suppressing the glucose levels in normal rats as equivalent doses of normal human insulin
- Coreload [1]: 24 wt %
- Encapsulation Efficiency [1]: 96 wt %
- In vitro release, Initial burst [2]: 6%

Substance: K5000: PEG-5000 linked to insulin B chain Lys29 [Conjugate K5000]
- suppression of glucose levels relative to normal human insulin [3]: as effective in suppressing the glucose levels in normal rats as equivalent doses of normal human insulin
- Coreload [1]: 24 wt %
- Encapsulation Efficiency [1]: 96 wt %
- In vitro release, Initial burst [2]: 2%

Substance: K10000: branched mPEG2-SPA 10,000 Da attached to the amino group of LysB29 of insulin [Conjugate K10000]
- duration of action ([3]; intravenous, normal rats): exceed 6 hours
- suppression of glucose levels relative to normal human insulin [3]: did not reduce glucose levels to the same extent as the other test articles
- Coreload [1]: 19 wt %
- Encapsulation Efficiency [1]: 76 wt %
- In vitro release, Initial burst [2]: 80%

Substance: K20000: branched mPEG2-SPA 20,000 Da attached to the amino group of LysB29 of insulin [Conjugate K20000]
- Coreload [1]: 14 wt %
- Encapsulation Efficiency [1]: 56 wt %
- In vitro release, Initial burst [2]: 80%

Substance: mPEG(1500)-B1-insulin: prior-art site-specific PEG 1500 conjugate of insulin at residue PheB1 (Obermeier; Geiger; Ehrat)
- insulin effect on reduction of blood sugar levels (rabbits): 100%
- stability to liver enzymes compared with native insulin (liver enzymes): far more stable (to liver enzymes)

Substance: mPEG(5000)-PheB1-insulin [Conjugate F5000]
- suppression of glucose levels relative to normal human insulin [3]: as effective in suppressing the glucose levels in normal rats as equivalent doses of normal human insulin
- Coreload [1]: 24 wt %
- Encapsulation Efficiency [1]: 96 wt %
- In vitro release, Initial burst [2]: 2%
